7 variants from FireProtDB (doi:10.1016/j.bbapap.2014.10.010) can be followed below.

First the molecules themselves.
B1: Alanine--glyoxylate aminotransferase, P21549 (parent)
chain: MASHKLLVTPPKALLKPLSIPNQLLLGPGPSNLPPRIMAAGGLQMIGSMSKDMYQIMDEIKEGIQYVFQTRNPLTLVISGSGHCALEAALVNVLEPGDSFLVGANGIWGQRAVDIGERIGARVHPMTKDPGGHYTLQEVEEGLAQHKPVLLFLTHGESSTGVLQPLDGFGELCHRYKCLLLVDSVASLGGTPLYMDRQGIDILYSGSQKALNAPPGTSLISFSDKAKKKMYSRKTKPFSFYLDIKWLANFWGCDDQPRMYHHTIPVISLYSLRESLALIAEQGLENSWRQHREAAAYLHGRLQALGLQLFVKDPALRLPTVTTVAVPAGYDWRDIVSYVIDHFDIEIMGGLGPSTGKVLRIGLLGCNATRENVDRVTEALRAALQHCPKKKL

This data set covers variants of B1. The conditions noted are these: Homo sapiens; pH 7.4; Thermal; DSC; Hepes 20 mM; NaCl 200 mM; transition: 2; reversible: No; structure 1H0C; whole UniProt chain shown.

As a reminder, the Tm is the temperature at the midpoint of the melting transition. In the case of MASHKLLVTPPKALLKPLSIPNQLLLGPGPSNLPPRIMAAGGLQMIGHMSKDMYQIMDEIKEGIQYVFQTRNPLTLVISGSGHCALEAALVNVLEPGDSFLVGANGIWGQRAVDIGERIGARVHPMTKDPGGHYTLQEVEEGLAQHKPVLLFLTHGESSTGVLQPLDGFGELCHRYKCLLLVDSVASLGGTPLYMDRQGIDILYSGSQKALNAPPGTSLISFSDKAKKKMYSRKTKPFSFYLDIKWLANFWGCDDQPRMYHHTIPVISLYSLRESLALIAEQGLENSWRQHREAAAYLHGRLQALGLQLFVKDPALRLPTVTTVAVPAGYDWRDIVSYVIDHFDIEIMGGLGPSTGKVLRIGLLGCNATRENVDRVTEALRAALQHCPKKKL [S48H], the Tm came out at 85.5 °C; the “change of melting temperature, mutant - wild type (higher = more stable)” value (“change of melting temperature, mutant” below) was found to be 15.5 °C; the “unfolding enthalpy (calorimetric)” value stood at 520 kcal/mol.
For MASHKLLVTPPKALLKPLSIPNRLLLGPGPSNLPPRIMAAGGLQMIGSMSKDMYQIMDEIKEGIQYVFQTRNPLTLVISGSGHCALEAALVNVLEPGDSFLVGANGIWGQRAVDIGERIGARVHPMTKDPGGHYTLQEVEEGLAQHKPVLLFLTHGESSTGVLQPLDGFGELCHRYKCLLLVDSVASLGGTPLYMDRQGIDILYSGSQKALNAPPGTSLISFSDKAKKKMYSRKTKPFSFYLDIKWLANFWGCDDQPRMYHHTIPVISLYSLRESLALIAEQGLENSWRQHREAAAYLHGRLQALGLQLFVKDPALRLPTVTTVAVPAGYDWRDIVSYVIDHFDIEIMGGLGPSTGKVLRIGLLGCNATRENVDRVTEALRAALQHCPKKKL [Q23R], in that order: 84.5 °C, 14.5 °C and 475 kcal/mol.
For MASHKLLVTPPKALLKPLSIPNQLLLGPGPSNLPPRIMAAGGLQMIGSMSKDMYQIMDEIKEGIQYVFQTRNPLTLVISGSGHCALEAALVNVLEPGDSFLVGANGIWGQRAADIGERIGARVHPMTKDPGGHYTLQEVEEGLAQHKPVLLFLTHGESSTGVLQPLDGFGELCHRYKCLLLVDSVASLGGTPLYMDRQGIDILYSGSQKALNAPPGTSLISFSDKAKKKMYSRKTKPFSFYLDIKWLANFWGCDDQPRMYHHTIPVISLYSLRESLALIAEQGLENSWRQHREAAAYLHGRLQALGLQLFVKDPALRLPTVTTVAVPAGYDWRDIVSYVIDHFDIEIMGGLGPSTGKVLRIGLLGCNATRENVDRVTEALRAALQHCPKKKL [V113A], in that order: 83.2 °C, 13.2 °C and 502 kcal/mol.
For the variant MASHKLLVTPPKALLKPLSIPNRLLLGPGPSNLPPRIMAAGGLQMIGHMSKEMYQIMDEIKEGIQYVFQTRNPLTLVISGSGHCALEAALVNVLEPGDSFLVGANGIWGQRAVDIGERIGARVHPMTKDPGGHYTLQEVEEGLAQHKPVLLFLTHGESSTGVLQPLDGFGELCHRYKCLLLVDSVASLGGTPLYMDRQGIDILYSGSQKALNAPPGTSLISFSDKAKKKMYSRKTKPFSFYLDIKWLANFWGCDDQPRMYHHTIPVISLYSLRESLALIAEQGLENSWRQHREAAAYLHGRLQALGLQLFVKDPALRLPTVTTVAVPAGYDWRDIVSYVMDHFDIEIMGGLGPSTGKVLRIGLLGCNATRENVDRVTEALRAALQHCPKKKL [Q23R S48H D52E I340M], the Tm is 92 °C; the “change of melting temperature, mutant” value turned out to be 22 °C; the “unfolding enthalpy (calorimetric)” value is 609 kcal/mol.
For MASHKLLVTPPKALLKPLSIPNQLLLGPGPSNLPPRIMAAGGLQMIGHMSKEMYQIMDEIKEGIQYVFQTRNPLTLVISGSGHCALEAALVNVLEPGDSFLVGANGIWGQRAADIGERIGARVHPMTKDPGGHYTLQEVEEGLAQHKPVLLFLTHGESSTGVLQPLDGFGELCHRYKCLLLVDSVASLGGTPLYMDRQGIDILYSGSQKALNAPPGTSLISFSDKAKKKMYSRKTKPFSFYLDIKWLANFWGCDDQPRMYHHTIPVISLYSLRESLALIAEQGLENSWRQHREAAAYLHGRLQALGLQLFVKDPALRLPTVTTVAVPAGYDWRDIVSYVMDHFDIEIMGGLGPSTGKVLRIGLLGCNATRENVDRVTEALRAALQHCPKKKL [S48H D52E V113A I340M], in that order: 91 °C, 21 °C and 613 kcal/mol.
With MASHKLLVTPPKALLKPLSIPNQLLLGPGPSNLPPRIMAAGGLQMIGSMSKDMYQIMDEIKEGIQYVFQTRNPLTLVISGSGHCALEAALVNVLEPGDSFLVGANGIWGQRAVDIGERIGARVHPMTKDPGGHYTLQEVEEGLAQHKPVLLFLTHGESSTGVLQPLDGFGELCHRYKCLLLVDSVASLGGTPLYMDRQGIDILYSGSQKALNAPPGTSLISFSDKAKKKMYSRKTKPFSFYLDIKWLANFWGCDDQPRMYHHTIPVISLYSLRESLALIAEQGLENSWRQHREAAAYLHGRLQALGLQLFVKDPALRLPTVTTVAVPAGYDWRDIVSYVMDHFDIEIMGGLGPSTGKVLRIGLLGCNATRENVDRVTEALRAALQHCPKKKL [I340M], the Tm was determined as 84.1 °C; the “change of melting temperature, mutant” value worked out at 14.1 °C; the “unfolding enthalpy (calorimetric)” value is 530 kcal/mol.
Regarding MASHKLLVTPPKALLKPLSIPNRLLLGPGPSNLPPRIMAAGGLQMIGHMSKEMYQIMDEIKEGIQYVFQTRNPLTLVISGSGHCALEAALVNVLEPGDSFLVGANGIWGQRAADIGERIGARVHPMTKDPGGHYTLQEVEEGLAQHKPVLLFLTHGESSTGVLQPLDGFGELCHRYKCLLLVDSVASLGGTPLYMDRQGIDILYSGSQKALNAPPGTSLISFSDKAKKKMYSRKTKPFSFYLDIKWLANFWGCDDQPRMYHHTIPVISLYSLRESLALIAEQGLENSWRQHREAAAYLHGRLQALGLQLFVKDPALRLPTVTTVAVPAGYDWRDIVSYVMDHFDIEIMGGLGPSTGKVLRIGLLGCNATRENVDRVTEALRAALQHCPKKKL [Q23R S48H D52E V113A I340M], the Tm worked out at 93.7 °C; the “change of melting temperature, mutant” value is 23.7 °C; the “unfolding enthalpy (calorimetric)” value is 638 kcal/mol.
